The data set has as its target T1, alpha-fetoprotein (AFP) (UniProt P02771 19-609).
T1 sequence: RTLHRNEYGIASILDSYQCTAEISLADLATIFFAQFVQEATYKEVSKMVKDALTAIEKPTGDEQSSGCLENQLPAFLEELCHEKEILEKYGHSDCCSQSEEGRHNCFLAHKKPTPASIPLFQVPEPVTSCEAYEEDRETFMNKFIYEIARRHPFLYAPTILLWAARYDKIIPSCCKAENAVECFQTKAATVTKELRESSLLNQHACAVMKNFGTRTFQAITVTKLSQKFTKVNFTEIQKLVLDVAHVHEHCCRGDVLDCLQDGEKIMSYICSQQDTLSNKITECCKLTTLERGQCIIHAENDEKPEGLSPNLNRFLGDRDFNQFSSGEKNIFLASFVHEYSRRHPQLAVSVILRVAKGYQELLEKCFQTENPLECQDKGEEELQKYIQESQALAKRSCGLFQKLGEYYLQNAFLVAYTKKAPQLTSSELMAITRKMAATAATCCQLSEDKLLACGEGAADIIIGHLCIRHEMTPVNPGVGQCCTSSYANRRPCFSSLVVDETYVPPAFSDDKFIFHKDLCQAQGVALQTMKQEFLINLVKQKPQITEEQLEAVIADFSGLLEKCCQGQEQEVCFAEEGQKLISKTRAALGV
As to the kind of experiment: electrochemical aptasensor (CV/SWV); aptamer immobilized on PtNPs/GO-COOH/SPGE; 3 mM hydroquinone probe; LOD 1.22 ng/mL, linear 3-30 ng/mL (not a Kd); 10 mM PBS pH 7.4, 3 mM hydroquinone for readout; BSA-blocked electrode (0.25% w/v); AFP incubation 45 min at room temperature. The following applies: protein: commercial.

B1: AFP aptamer (ssDNA)
DNA: GTGACGCTCCTAACGCTGACTCAGGTGCAGTTCTCGACTCGGTCTTGATGTGGGTCCTGTCCGTCCGAACCAATC
modifications: 5'-NH2
Consider B1, for which the binding result is “binds”.

The values above are taken from article PMC8263621, “A simple label-free electrochemical sensor for sensitive detection of alpha-fetoprotein based on specific aptamer immobilized platinum nanoparticles/carboxylated-graphene oxide”.
